The supplement of paper PMC12764529
± gives the half width of the 95% confidence interval.

Key:
[1] = folding stability dG unfold (combined trypsin and chymotrypsin); higher = more stable
In short: (§1)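 Sequencing followed digestion of designed mini-proteins with trypsin and chymotrypsin, each at 11 concentrations in threefold dilutions together with a no-protease condition. The mini-proteins were under 80 residues, had no cysteine, sat in a PA-tagged cDNA display construct, and were kept only if AlphaFold2 dimer inter-PAE was above 15. From the counts, Bayesian fitting gave K50, and unfolding free energy was derived against a sequence-predicted unfolded-state K50 and a shared folded-state K50, per protease or combined.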

[2] = folding stability dG unfold from trypsin proteolysis; higher = more stable
In short: as §1

[3] = folding stability dG unfold from chymotrypsin proteolysis; higher = more stable
In short: as §1

| Sequence | folding stability dG unfold [1] [kcal/mol] | folding stability dG unfold [2] [kcal/mol] | folding stability dG unfold [3] [kcal/mol] |
| --- | --- | --- | --- |
| SAGSRVLTLVFEIPGRPEVVENLPEDVVLPDGARLYRDGERLLLVVEREVPSLPVLDADGRPVGPELLSAGG [r19_148_TrMRF] | 0.85 ± 0.039 | 0.4 ± 0.027 | 1.11 ± 0.056 |
| SAGSSAVEVDIDEELKEKLKKLIDPDKPIEITRLKTTTNETIILITEKGSGKKYIFTRNKEGKIEIKKSAGG [r19_70_JUSTAS] | 2.38 ± 0.069 | 2.07 ± 0.061 | 2.5 ± 0.065 |
| SAGSSLNILLELETPEEAEKEAARIKEEIPKKGISVTVTIVSKEELEKLLKENVIELPNGSLKLVLFPSAGG [r19_187_JUSTAS] | 0.218 ± 0.25 | 0.201 ± 0.11 | 0.138 ± 0.19 |
| SAGSSMLDSLTVDTEVTLDPAKGTVLVKTTTTLPDGTVTRTVTTVTVEPLNPPPPPPPRFDPRTGEALESAG [r5_816_JUSTAS] | 0.549 ± 0.14 | 0.79 ± 0.082 | 0.207 ± 0.15 |
| SAGSSMSLPLPEEIEIEIPNPGLSLEEIKKIVADKLGLKIVSVEEEEGRLVFKAENGIPIRVKIEEPGKSAG [r5_350_JUSTAS] | 2.34 ± 0.072 | 2.35 ± 0.13 | 2.376 ± 0.013 |
| SAGSSMSVTIKVTIRSPTRTEEIEITVSPSESLEEAIKKVAEKLPPDYSITITFEGGETVTIPIPKELLSAG [r5_77_JUSTAS] | 1.58 ± 0.089 | 1.93 ± 0.1 | 1.15 ± 0.024 |
| SAGSSSMVLLKVTITFTDPNGTTTTLTYTFDDPSNPEKARAAVEALAAEIKAATGASWTITMTTVPVPGSAG [r14_146_JUSTAS] | 5.17 ± 0.12 | 4.59 ± 0.16 | 5.32 ± 0.066 |
| SAGSSTPGSEVVRVTSEVSEGESNRTVSYTTYVFEPGGPALRPLSTSTTTVPAAPGVPEGGTKTISLPGSAG [r5_861_JUSTAS] | -0.534 ± 0.11 | -0.419 ± 0.064 | -0.755 ± 0.2 |
| SAGSSTTLTFPVDTKIPDEKGNPLSSSTVTVTVNPSPGKVTATLTDPATGTVTTVEFGSLEKVEAFLSSSAG [r14_508_JUSTAS] | 0.809 ± 0.067 | 1.29 ± 0.042 | -0.218 ± 0.18 |
| SAGSSVTAPFSLPSDLVVDSVTYDPDAKTVTVTVTDPRGGRKAVGTFPVWDPNGNPVLSTADSYTFDNPSAG [r5_434_TrMRF] | -0.128 ± 0.053 | -0.417 ± 0.03 | -0.0129 ± 0.058 |
| SAGSTTRVVELPGNKRVEVEVSTVGDSLTFTITLRDEEGNPVKTLPVAVPDPSLPVEEAIAAAVAAFLASAG [r5_630_JUSTAS] | 3.68 ± 0.042 | 3.15 ± 0.049 | 3.91 ± 0.029 |
| SAGSYSVTADVTVHPDGTVDVTLTITTNGEDGTTETSTVLPLTLDLPPGTAVTVTVDPNNGTVTVTVEASAG [r5_179_JUSTAS] | 3.89 ± 0.079 | 3.01 ± 0.14 | 4.14 ± 0.058 |
| SAGTIAKEIAEKLGLPGLKVKDVKFEPDPDGPIKEIEITVEFPNGRYWKIDIRYDPGNIVIDIEPVPPSAGG [r19_392_TrROS] | 2.17 ± 0.1 | 1.98 ± 0.056 | 2.29 ± 0.029 |
| SAGTIKELLEKLPGFSVEVDPDDGTVWVMFRMPDHYVMIEIPIDKEDGNIKGIRIHRHDPNGEPKPIPLSAG [r5_367_TrROS] | 1.44 ± 0.12 | 1.44 ± 0.038 | 1.19 ± 0.22 |
| SAGTIREALDNPKNKRVVIMIMIPPEDFPPGDPERYRERAREMANGIMGWFRERGLDVKIEIEIMYMPWSAG [r5_408_TrROS] | 2.65 ± 0.079 | 2.38 ± 0.044 | 2.77 ± 0.03 |
| SAGTITADDITEIEMQWDPGNGYVQIEIEFPNGYTVNAWMPNDKIEIEVWYPNGKKVEIEFEIKPPGASAGG [r19_121_TrROS] | 2.39 ± 0.38 | 1.72 ± 0.22 | 2.74 ± 0.18 |
| SAGTLTLELEVEVDGVLVRVRVEVRPGEEVEVRVEVEVRELPPEPEVEEEEKVELSEEDLERLRRLAEESAG [r5_958_TrROS_Hall] | 3.05 ± 0.1 | 2.46 ± 0.071 | 3.4 ± 0.086 |
| SAGTVSSSFDPATGTLTITRTTSPDETVDLTLNVEVPETPATVAKVDSGGPVEGDEPVTITVELTDLKPSAG [r5_737_JUSTAS] | -0.152 ± 0.24 | 0.222 ± 0.075 | -0.522 ± 0.42 |

| Sequence | folding stability dG unfold [1] [kcal/mol] | folding stability dG unfold [2] [kcal/mol] | folding stability dG unfold [3] [kcal/mol] |
| --- | --- | --- | --- |
| SAGVISPTDPTTTTTTEVRESEDGTTTTVSTVTYPGTGSTMTVTTTTTHDPSTGTSTVTSTTTTDPSASAGG [r19_342_JUSTAS] | 1.08 ± 0.059 | 1.57 ± 0.086 | 0.394 ± 0.029 |
| SAGVLTIEVQMPADDAEEFAEEVADTIARRLGFPPGFKIKVKVDRFDPDNGYVRVEATIEFPLPPNQPPSAG [r5_537_TrROS] | 2.43 ± 0.099 | 2.61 ± 0.12 | 2.19 ± 0.059 |
| SAGVTLKLPFVLPGGLGVDEIEVRSLPGGRVEARLRLKGDPRYYVVARFYVLPGGRLVITDVRVRREDESAG [r14_705_TrMRF] | 3.54 ± 0.082 | 3.75 ± 0.095 | 3.22 ± 0.031 |
| SAGVVEELLKEFPDVEKVTSSSYPGPKVSQYVIYFPTPSGKKVTIKITVTQPRLPSNSTTSELSIELNDSAG [r5_398_JUSTAS] | 2.08 ± 0.38 | 2.11 ± 0.12 | 2.25 ± 0.12 |
| SAGVVEITFEVPETGEPFTLVIDEDGNVTGRWPSTGDEQEWKLGDKVITFPPNMSPELAAELEKEALSESAG [r14_561_TrMRF] | 0.644 ± 0.18 | 0.66 ± 0.053 | 0.587 ± 0.25 |
| SAGVVVERTVTRTVPKDSATKEKIIEEIKASMPGMKVKEVEVLSETPLPDGSIVVTVKLTIERPPDVLESAG [r5_682_JUSTAS] | 2.98 ± 0.11 | 3.23 ± 0.11 | 2.88 ± 0.092 |
| SAGVVVRPGEPVPFYVVRVETELRTRPRPDGSEVTTVETRVEVRPYTVTVGPVPVVEVPPDATDPADAASAG [r5_770_TrMRF] | 3.21 ± 0.16 | 2.09 ± 0.2 | 3.96 ± 0.17 |
| SAGWKPITAEEIKKLVKEFAEKAPPGDKRPVTVEIRLPLPNGRHWVFTIKVERTDNNVKVKIEVQPYNSAGG [r19_220_TrROS] | 3.2 ± 0.11 | 2.49 ± 0.076 | 3.64 ± 0.039 |
| SAGWRQILDMARNMLENGHMFRIEWTGPGGKPQEFRIPLDDIETLLDNWPDPDDIRSVDIEVYPPGEPISAG [r5_957_TrROS] | 2.22 ± 0.062 | 1.72 ± 0.021 | 2.45 ± 0.056 |
| SAGWYIKIKIEYPGDGQKKLEVPIPIPSPEEAKEFADEIADMLAEQNGGNIKIEVEVFRLPPVPPEDQGSAG [r5_87_TrROS] | 1.82 ± 0.21 | 0.544 ± 0.11 | 2.2 ± 0.15 |
| SAGWYYIIIIKHDNKPIVFVIPPEGMPPEGIRDQISEMLGMPPDNVEIDDIVPFDDNQDAEEAVKEALDSAG [r5_900_TrROS] | 2.09 ± 0.22 | 1.53 ± 0.067 | 2.33 ± 0.14 |
| SAGYKATIIPPDGSEVTIDVKAEDLGPLVEELEKAGLKVESLEVSPDGTAVIPVTSPDGKPYLIVIDLKSAG [r5_645_TrMRF] | 0.413 ± 0.094 | 0.418 ± 0.032 | 0.305 ± 0.11 |
| SAIEITVMSDSPEEAKEKAKEFANWLQNRMRRDGLPDMPIPIKIEVIPVPPPKPKPKRDPDDGEWKPDPSAG [r14_475_TrROS] | 0.487 ± 0.23 | -0.415 ± 0.57 | 0.731 ± 0.34 |
| SAIKIKNVEFNDNGWMEIEIPYPENGREVTIRMDPNGNIQVEEYPPNDGKPKRKTIPGMSIEEILEELLSAG [r14_760_TrROS] | 0.55 ± 0.33 | 1.08 ± 0.24 | 0.25 ± 0.13 |
| SAIKLPDGFEIKEVEFTPDGNVTIKIEVKKYSFMIYNPDNGQIQHIPPGKEQEITMPPNEPMRIWVIKPSAG [r14_385_TrROS] | 1.48 ± 0.36 | 1.45 ± 0.13 | 1.58 ± 0.26 |
| SAIRIEEITIDPEYGVITITFDYPMPPGAEKIKFKIFIDGFKIKEIEYEVDPENGWVRMTLTIRIPKDASAG [r14_244_TrROS] | > 6 | 4.09 ± 0.28 | 6.5 ± 0.44 |
| SAKEELYIIEIKVYVDGKEVKTITKVITVPEEKLEEKLKELLKKLAEELGLEIKKVEVKIKKLSLEELKSAG [r14_104_TrROS_Hall] | 2.83 ± 0.34 | 2.79 ± 0.22 | 3.09 ± 0.14 |
| SAKFRPVEIPFEIKLEEKDPEDGKKEEREFDIKVKIMVFPDNGMVFISIEFIELGRPITIMLPPGAPIISAG [r14_587_TrROS] | 3.08 ± 0.28 | 2.61 ± 0.17 | 3.37 ± 0.092 |
